Measured values: the supplement of paper PMC12042874
± gives the uncertainty stated by the source.

Experiments:
[1] = amyloid nucleation score (Sup35N fusion, yeast selection) (log enrichment); library NNK1; higher = more nucleation; inactive = no reads after selection
Outline: (§1)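 The nucleation score is the DiMSum log enrichment of output over input reads, centred on the mode score of non-aggregating sequences. Only sequences with 100 or more input reads were scored, using Illumina sequencing of input and output plasmid inserts. Psi-negative yeast expressing Sup35N fused to peptides of 20 random codons were induced 24 hours with 100 μM copper sulfate and grown 7 days at 30°C on medium lacking adenine and uracil.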

[2] = amyloid nucleation score (Sup35N fusion, yeast selection) (log enrichment); library NNK2; higher = more nucleation; inactive = no reads after selection
Outline: as §1

Row | Substance | amyloid nucleation score [1] | amyloid nucleation score [2]
1 | ASDLGATKHNLHFIACIFSL | 4.77 ± 0.074 | 
2 | ASFASKARHKR | 0.728 ± 0.87 | 
3 | ASFGGINLPL | -0.236 ± 0.41 | 
4 | ASFITGWMANTYN | 0.385 ± 0.42 | 
5 | ASGKYNRLCIGFVWGCEQGM | 2.12 ± 0.26 | 
6 | ASGSI | -1.32 ± 2.4 | 
7 | ASIYCWLLNRHLDDDFLWLS | -0.702 ± 1.9 | 
8 | YQKCTRIFQILCGSACLKTR |  | -0.649 ± 0.64
9 | YQLLLFV |  | -0.969 ± 0.41
10 | YQMISDSPNINIFYGFYSET |  | inactive
11 | YQTYF |  | -1.08 ± 0.41
12 | YQVFSQLEMRTYCKGKDFTL |  | 4.724 ± 0.038
13 | YRFKLFTHRYILFNWVFLLL |  | inactive
14 | YRILSNASWTFAVVQSCNPY |  | 5.789 ± 0.047
15 | YRINEDET |  | -1.55 ± 0.41
16 | YRLNVNKSSNQGV |  | -0.712 ± 0.45
17 | YRLYDRENSAICYISYTLLL |  | 2.36 ± 0.069
18 | YRMCLLRYT |  | -0.936 ± 0.55
19 | YRMLSIKCGM |  | -0.707 ± 0.79
20 | YRNCLPMGGNALS |  | -0.964 ± 1.1
21 | YRPITRMCSWDRNSLWWSRY |  | -0.582 ± 0.54
22 | YRRQPS |  | 0.174 ± 0.56

Row | Substance | amyloid nucleation score [1] | amyloid nucleation score [2]
23 | YRRYVLTL |  | 0.057 ± 0.76
24 | YRSFCWEQ |  | -0.581 ± 0.56
25 | YRSSLRHFSVYSYNSFSELL |  | 0.626 ± 0.65
26 | YRVSIMYDAWDGLARWFYRR |  | 0.507 ± 0.46
27 | YRWVHLEFGARLAFQSVKNI |  | 0.241 ± 0.8
28 | YRYPRCRVRLVS |  | -0.822 ± 0.35
29 | YSAFHSMENQTRKMFMEPLP |  | -0.311 ± 0.79
30 | YSDMSFAVALAVSWVQAGAW |  | -0.618 ± 0.63
31 | YSENNLIG |  | inactive
32 | YSERSTEGQ |  | 0.698 ± 0.26
33 | YSEWSSTRPQFRTLNHEWLL |  | 0.498 ± 0.74
34 | YSISNPYACFSNVQSFLLYN |  | 2.65 ± 0.15
35 | YSKTLERVDSSVD |  | 1.26 ± 0.38
36 | YSLFTT |  | -0.451 ± 0.76
37 | YSLLCWVYIRSLNSLNKCCG |  | 3.15 ± 0.075
38 | YSLTYLAFSFQKNNTIFLTY |  | 0.358 ± 0.65
39 | YSMVIY |  | -0.014 ± 0.76
40 | YSMWGYCISPNKHVYFTHGR |  | -0.421 ± 0.78
41 | YSRTQENNAGLSYIACTGRR |  | 0.168 ± 0.56
42 | YSSNGPGEKWRYR |  | 2.04 ± 0.09
43 | YSYRVRI |  | 3.71 ± 0.056
44 | YTMASLS |  | 1.74 ± 0.13

Row | Substance | amyloid nucleation score [1] | amyloid nucleation score [2]
45 | YTNAFRPRSVRLTVIRIGQY |  | 4.07 ± 0.11
46 | YTRKVSAG |  | -0.063 ± 0.36
47 | YTRNIHMHFHRMLPNVGMAF |  | inactive
48 | YTYSHAYPRWTMFIWWHDLE |  | -0.378 ± 0.31
49 | YTYTQTR |  | 0.25 ± 0.48
50 | YVAILFRFRRSIMFNLLIQM |  | -0.318 ± 0.8
51 | YVCCR |  | 0.565 ± 0.46
52 | YVDVGC |  | 0.513 ± 0.52
53 | YVEFCFLTCSASGLAWSLRW |  | 0.053 ± 0.31
54 | YVFLEGFNRVFDHVACIGLK |  | -0.721 ± 0.35
55 | YVGEKRGSVSEYLLHLLSTG |  | inactive
56 | YVGHRTMMKFTIIVIYYMYP |  | -1.5 ± 1
57 | YVKSRHTNYDGRSTLL |  | 3.12 ± 0.13
58 | YVKVVFCFDLAAMTSRRFYE |  | 0.228 ± 1
59 | YVLELKG |  | 2.75 ± 0.062
60 | YVLSRDRSWIHGGVGELGAW |  | 0.969 ± 0.53
61 | YVNVL |  | 0.479 ± 0.49
62 | YVPPIGGNRHAHLVASCLGS |  | 0.434 ± 0.21
63 | YVQRNNARVTLGGTHSFRSV |  | 3.83 ± 0.068
64 | YVSHLMFKVSGLPWLGRCNY |  | 4.78 ± 0.087
65 | YVTVTNGMI |  | -0.447 ± 0.61
66 | YVVSQTVRWF |  | inactive

Row | Substance | amyloid nucleation score [1] | amyloid nucleation score [2]
67 | YWANGSDEDSVGGNIDAVGD |  | -1.07 ± 0.55
68 | YWKGNTRIGQVLFYTLSCKT |  | 0.389 ± 0.8
69 | YWKPCLVAVGWSTQLRCCPV |  | -0.324 ± 0.3
70 | YWLSRSWHWKKLFGGWFALL |  | 0.016 ± 0.54
71 | YWVFI |  | -0.115 ± 0.56
72 | YWVYAGIGVRMCNRVYNNLR |  | 0.336 ± 0.3
73 | YWWCRPILILCSNLDDVWSL |  | 7.6 ± 0.079
74 | YYDSYPVT |  | 0.013 ± 0.28
75 | YYFNEREK |  | inactive
76 | YYHCPTSFFYIV |  | inactive
77 | YYIMCFSSGCDPLPQHCGWE |  | -0.821 ± 1.1
78 | YYIQHHSF |  | 3.37 ± 0.082
79 | YYKQWG |  | inactive
80 | YYLNSTSGKDR |  | inactive
81 | YYLPLGYDWPWSYSKCSNTR |  | 4.04 ± 0.072
82 | YYMKVVMVDTQTQV |  | inactive
83 | YYQRLRVHLYADIELYATLC |  | 0.266 ± 0.6
84 | YYSDVGVYSVRGYLLWS |  | -0.447 ± 0.61
85 | YYSKNAVVWVNGCVRRVMII |  | 0.127 ± 0.63
86 | YYVAIVSLWSGVKYVMVKFA |  | -1.07 ± 0.78
87 | YYWTPCGVCITFVGCNVILY |  | 8.499 ± 0.022
